{"source": "patent US20090203038A1", "about": "(AbbVie / Abbott, published 2009)", "target": "T1, biotinylated cyclic BNP (1-32c) (human, biotinylated; cyclic)", "T1 construct": "also called human BNP", "T1 sequence (peptide, as listed by the source)": "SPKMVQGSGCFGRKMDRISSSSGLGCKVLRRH", "test": "flow cytometry, yeast-displayed scFv, biotinylated cyclic BNP (1-32c) detected with SA:PE", "procedure": "Dilutions of the transformation reaction were plated on selective glucose plates (2% glucose (0.67% yeast nitrogen base, 0.105% HSM-trp-ura, 1.8% bacterial agar, 18.2% sorbitol, 0.86% NaH₂PO₄H₂O, 1.02% Na₂HPO₄ 7H₂O)) and incubated at 30° C. for 48-72 hours. Selective glucose media was inoculated with individual colonies and grown shaking at 30° C. for 16-20 hours. Protein expression was induced in colonies by transferring 0.5 OD600 of cells/ml (1e7 cells/0.5 OD/ml) to selective galactose media. Colonies were shaken at 20° C. for 16-24 hours and then analyzed by the FACS Aria flow cytometer for binding to cyclic BNP (referred to as “1-32c”) (SEQ ID NO:10) and anti-V5.", "data": [{"binder": "3-631-436 scFv (wildtype), displayed on the surface of yeast (scFv) scFv: QVQLQQPGAELVRPGASVKLSCKASGYTFTSYWMNWVKQRPEQGLEWIGRIDPYDSETHYNQKFKDKAILTVDKSSSTAFVQLTSLTSEDSAVYYCVSDGYWGAGTTVTVSSGPAKELTPLKEAKVSDVVMTQTPLTLSVTTGQPASISCKSSQSLLDSDGKTYLNWLFQRPGESPKLLIYVVSKLESGVPDRFTGSGSGTDFTLKISRVEAEDLGVYYCLQATHFPWTFGGGTKLEIKRAAALESRGPFEGKPIPNPLLGLDSTRTGHHHHHH", "values": [{"measurement": "binding result", "value": "binds"}]}]}
